Results: patent US20100310561A1 (Boehringer Ingelheim, published 2010)
Where no end group is shown, it is not given here.

Key:
[1] = target: T1, human natriuretic peptide receptor A (NPRA) (human, UniProt P16066 33-1061); assay: cell-based or functional assay
T1 sequence (looked up): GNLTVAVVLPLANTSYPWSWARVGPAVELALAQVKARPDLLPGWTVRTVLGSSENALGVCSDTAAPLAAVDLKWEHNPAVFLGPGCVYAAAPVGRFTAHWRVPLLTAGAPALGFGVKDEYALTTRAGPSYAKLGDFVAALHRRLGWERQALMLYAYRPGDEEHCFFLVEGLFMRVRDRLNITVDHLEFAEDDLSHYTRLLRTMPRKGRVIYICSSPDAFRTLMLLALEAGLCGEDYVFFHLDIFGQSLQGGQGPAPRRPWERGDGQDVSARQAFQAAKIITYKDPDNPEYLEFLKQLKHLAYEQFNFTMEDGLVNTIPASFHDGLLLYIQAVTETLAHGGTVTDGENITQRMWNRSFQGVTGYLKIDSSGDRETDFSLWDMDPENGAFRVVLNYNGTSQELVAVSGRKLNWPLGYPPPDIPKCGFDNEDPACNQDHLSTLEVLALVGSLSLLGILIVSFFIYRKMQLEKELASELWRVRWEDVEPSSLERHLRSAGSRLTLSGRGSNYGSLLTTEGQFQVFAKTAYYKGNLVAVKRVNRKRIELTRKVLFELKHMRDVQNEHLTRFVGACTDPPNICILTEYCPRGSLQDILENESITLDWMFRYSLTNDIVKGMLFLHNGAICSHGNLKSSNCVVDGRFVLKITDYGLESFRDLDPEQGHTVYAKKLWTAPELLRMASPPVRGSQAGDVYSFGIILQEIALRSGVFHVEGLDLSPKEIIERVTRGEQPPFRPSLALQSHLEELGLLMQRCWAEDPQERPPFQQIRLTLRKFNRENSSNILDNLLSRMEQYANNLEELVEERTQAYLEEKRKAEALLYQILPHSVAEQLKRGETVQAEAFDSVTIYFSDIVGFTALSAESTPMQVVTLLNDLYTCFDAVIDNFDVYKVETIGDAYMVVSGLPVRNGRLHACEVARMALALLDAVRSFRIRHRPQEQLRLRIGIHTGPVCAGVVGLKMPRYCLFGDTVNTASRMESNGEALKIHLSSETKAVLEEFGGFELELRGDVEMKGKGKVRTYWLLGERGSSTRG

[2] = target: T2, rat NPRA (rat, UniProt P18910 29-1057); assay: cell-based or functional assay
T2 sequence (looked up): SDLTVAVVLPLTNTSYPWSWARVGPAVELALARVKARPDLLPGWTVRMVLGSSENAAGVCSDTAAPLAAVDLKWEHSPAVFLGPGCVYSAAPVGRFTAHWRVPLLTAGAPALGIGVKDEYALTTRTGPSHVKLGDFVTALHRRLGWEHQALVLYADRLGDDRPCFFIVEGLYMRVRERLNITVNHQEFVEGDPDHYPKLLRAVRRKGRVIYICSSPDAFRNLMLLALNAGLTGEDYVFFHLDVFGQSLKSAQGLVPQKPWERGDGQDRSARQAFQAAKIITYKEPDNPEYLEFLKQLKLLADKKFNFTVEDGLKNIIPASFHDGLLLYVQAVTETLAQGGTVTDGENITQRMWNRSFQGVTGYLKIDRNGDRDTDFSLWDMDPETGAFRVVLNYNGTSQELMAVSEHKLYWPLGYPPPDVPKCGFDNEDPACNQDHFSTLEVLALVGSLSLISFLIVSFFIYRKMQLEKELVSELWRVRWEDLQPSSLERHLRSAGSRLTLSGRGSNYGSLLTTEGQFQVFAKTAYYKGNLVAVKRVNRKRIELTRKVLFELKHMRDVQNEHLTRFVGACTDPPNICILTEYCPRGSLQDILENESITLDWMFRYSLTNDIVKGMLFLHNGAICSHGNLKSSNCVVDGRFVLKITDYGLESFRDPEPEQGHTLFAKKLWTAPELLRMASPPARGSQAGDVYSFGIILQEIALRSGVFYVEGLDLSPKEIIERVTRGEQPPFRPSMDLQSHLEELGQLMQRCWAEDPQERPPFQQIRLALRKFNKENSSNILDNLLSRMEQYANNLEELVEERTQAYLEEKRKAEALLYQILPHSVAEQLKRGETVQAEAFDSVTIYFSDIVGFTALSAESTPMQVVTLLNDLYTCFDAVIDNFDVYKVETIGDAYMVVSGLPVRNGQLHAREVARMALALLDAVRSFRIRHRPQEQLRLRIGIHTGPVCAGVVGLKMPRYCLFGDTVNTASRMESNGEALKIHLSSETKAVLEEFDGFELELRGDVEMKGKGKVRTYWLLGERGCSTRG

[3] = target: T3, canine NPRA (canine, UniProt A0A8I3MHU3 32-1060); assay: cell-based or functional assay
T3 sequence: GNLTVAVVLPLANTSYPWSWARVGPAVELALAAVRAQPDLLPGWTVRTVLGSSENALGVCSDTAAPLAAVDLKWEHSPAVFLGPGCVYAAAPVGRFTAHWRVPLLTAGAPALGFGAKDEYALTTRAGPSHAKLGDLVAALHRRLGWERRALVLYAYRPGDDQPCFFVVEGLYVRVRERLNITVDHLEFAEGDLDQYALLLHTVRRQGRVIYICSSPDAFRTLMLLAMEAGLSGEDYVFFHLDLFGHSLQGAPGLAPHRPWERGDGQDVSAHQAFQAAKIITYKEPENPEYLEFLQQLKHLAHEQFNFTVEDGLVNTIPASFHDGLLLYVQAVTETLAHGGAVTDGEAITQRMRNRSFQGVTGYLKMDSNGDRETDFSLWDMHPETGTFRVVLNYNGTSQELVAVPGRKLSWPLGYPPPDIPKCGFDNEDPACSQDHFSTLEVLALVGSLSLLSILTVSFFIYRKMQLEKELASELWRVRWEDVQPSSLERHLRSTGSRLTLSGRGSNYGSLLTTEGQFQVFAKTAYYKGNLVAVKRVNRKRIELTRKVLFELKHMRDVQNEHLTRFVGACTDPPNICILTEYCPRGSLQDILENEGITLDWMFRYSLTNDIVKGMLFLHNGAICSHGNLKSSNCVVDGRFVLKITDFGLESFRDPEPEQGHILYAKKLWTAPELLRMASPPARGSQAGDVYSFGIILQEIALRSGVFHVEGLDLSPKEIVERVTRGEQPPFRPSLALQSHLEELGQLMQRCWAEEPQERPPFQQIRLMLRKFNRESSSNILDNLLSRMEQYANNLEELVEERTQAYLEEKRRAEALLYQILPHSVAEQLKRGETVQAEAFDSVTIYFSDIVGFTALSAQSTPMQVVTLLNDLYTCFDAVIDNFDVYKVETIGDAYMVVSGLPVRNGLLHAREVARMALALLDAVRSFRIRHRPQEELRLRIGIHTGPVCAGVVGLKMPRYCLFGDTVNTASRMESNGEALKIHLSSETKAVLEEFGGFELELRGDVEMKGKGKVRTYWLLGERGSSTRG

[4] = target: monkey NPRA (monkey); assay: cell-based or functional assay
[5] = target: T1, human natriuretic peptide receptor A …; assay: competition with 125I-labeled ANP on human NPRA transfected HEK293 cells
Protocol: (§1) Plates were washed using vacuum filtration and allowed to dry. Scintillant was added and the plates were counted on a TopCount Scintillation counter. Curves were fit using XLfit4.2 and IC₅₀ values (Table 8) were determined using the Dose Response One Site Model 205, [4 parameter fit: y=A+((B-A)/(1+((C/x)̂D)))].

[6] = target: T1, human natriuretic peptide receptor A …; assay: competition with 125I-labeled ANP on human NPRA transfected HEK293 cells; Ki=IC50/[1+([L]/Kd)]
Protocol: Plates were washed with ice cold buffer by vacuum filtration and allowed to dry. Scintillant was added and the plates were counted on a TopCount Scintillation counter.
as §1

[7] = target: T1, human natriuretic peptide receptor A …; assay: competition with 125I-labeled ANP on human NPRA transfected HEK293 cells; relative to Construct 1
Protocol: as §1

[8] = target: T3, canine NPRA; assay: cell-based or functional assay; remark: listed apart in the source

| Binder | cGMP EC50 (nM) Human NPRA [1] [nM] | cGMP EC50 (nM) Rat NPRA [2] [nM] | cGMP EC50 (nM) Dog NPRA [3] [nM] | cGMP EC50 (nM) Monkey NPRA [4] [nM] | IC50 [5] [nM] | Ki [6] [nM] | Relative Affinity [7] | Mean EC50 nM, cGMP-caNPRA 293 [8] [nM] |
| --- | --- | --- | --- | --- | --- | --- | --- | --- |
| Construct 4, ANPXY-L4-Fc2AB (recombinant) (Fc fusion, also called ANP28-11aa-hFc2) SLRRSSCFGGRMDRIGAQSGLGCNSFRYGGSGGSGGSGGCPPCPAPPVAGPSVFLFPPKPKDTLMISRTPEVTCVVVDVSHEDPEVQFNWYVDGVEVHNAKTKPREEQFNSTFRVVSVLTVVHQDWLNGKEYKCKVSNKGLPAPIEKTISKTKGQPREPQVYTLPPSREEMTKNQVSLTCLVKGFYPSDIAVEWESNGQPENNYKTTPPMLDSDGSFFLYSKLTVDKSRWQQGNVFSCSVMHEALHNHYTQKSLSLSPGK | 27 | 57 | 46 | 18 | 29.3 | 12.3 | 4 | – |
| Construct 5, ANPXY-L6-Fc2AB (recombinant) (Fc fusion, also called ANP28-20aa-hFc2) SLRRSSCFGGRMDRIGAQSGLGCNSFRYGGSGGSGGSGGSGGSGGSGGCPPCPAPPVAGPSVFLFPPKPKDTLMISRTPEVTCVVVDVSHEDPEVQFNWYVDGVEVHNAKTKPREEQFNSTFRVVSVLTVVHQDWLNGKEYKCKVSNKGLPAPIEKTISKTKGQPREPQVYTLPPSREEMTKNQVSLTCLVKGFYPSDIAVEWESNGQPENNYKTTPPMLDSDGSFFLYSKLTVDKSRWQQGNVFSCSVMHEALHNHYTQKSLSLSPGK | 6 | 12 | 6 | 5 | 4.3 | 2 | 1 | – |
| SLRRSSCFGGRMDRIGAQSGLGCNSFRY (ends and bridges not checked; also: also used 125I-labelled as radioligand) [human ANP28 peptide (hANP28)] | – | – | 1.3 | 0.5 | – | – | – | 1.34 |
